Test results as given in publication PMC4215182.

Tests used:
[1] = target: T1, CPSF30 (within CPSF complex) (human? (HEK293), UniProt O95639 1-269); experiment: UV cross-linking
[2] = target: T2, Wdr33 (within CPSF complex) (human? (HEK293), UniProt Q9C0J8 1-1336); experiment: UV cross-linking
T2 sequence: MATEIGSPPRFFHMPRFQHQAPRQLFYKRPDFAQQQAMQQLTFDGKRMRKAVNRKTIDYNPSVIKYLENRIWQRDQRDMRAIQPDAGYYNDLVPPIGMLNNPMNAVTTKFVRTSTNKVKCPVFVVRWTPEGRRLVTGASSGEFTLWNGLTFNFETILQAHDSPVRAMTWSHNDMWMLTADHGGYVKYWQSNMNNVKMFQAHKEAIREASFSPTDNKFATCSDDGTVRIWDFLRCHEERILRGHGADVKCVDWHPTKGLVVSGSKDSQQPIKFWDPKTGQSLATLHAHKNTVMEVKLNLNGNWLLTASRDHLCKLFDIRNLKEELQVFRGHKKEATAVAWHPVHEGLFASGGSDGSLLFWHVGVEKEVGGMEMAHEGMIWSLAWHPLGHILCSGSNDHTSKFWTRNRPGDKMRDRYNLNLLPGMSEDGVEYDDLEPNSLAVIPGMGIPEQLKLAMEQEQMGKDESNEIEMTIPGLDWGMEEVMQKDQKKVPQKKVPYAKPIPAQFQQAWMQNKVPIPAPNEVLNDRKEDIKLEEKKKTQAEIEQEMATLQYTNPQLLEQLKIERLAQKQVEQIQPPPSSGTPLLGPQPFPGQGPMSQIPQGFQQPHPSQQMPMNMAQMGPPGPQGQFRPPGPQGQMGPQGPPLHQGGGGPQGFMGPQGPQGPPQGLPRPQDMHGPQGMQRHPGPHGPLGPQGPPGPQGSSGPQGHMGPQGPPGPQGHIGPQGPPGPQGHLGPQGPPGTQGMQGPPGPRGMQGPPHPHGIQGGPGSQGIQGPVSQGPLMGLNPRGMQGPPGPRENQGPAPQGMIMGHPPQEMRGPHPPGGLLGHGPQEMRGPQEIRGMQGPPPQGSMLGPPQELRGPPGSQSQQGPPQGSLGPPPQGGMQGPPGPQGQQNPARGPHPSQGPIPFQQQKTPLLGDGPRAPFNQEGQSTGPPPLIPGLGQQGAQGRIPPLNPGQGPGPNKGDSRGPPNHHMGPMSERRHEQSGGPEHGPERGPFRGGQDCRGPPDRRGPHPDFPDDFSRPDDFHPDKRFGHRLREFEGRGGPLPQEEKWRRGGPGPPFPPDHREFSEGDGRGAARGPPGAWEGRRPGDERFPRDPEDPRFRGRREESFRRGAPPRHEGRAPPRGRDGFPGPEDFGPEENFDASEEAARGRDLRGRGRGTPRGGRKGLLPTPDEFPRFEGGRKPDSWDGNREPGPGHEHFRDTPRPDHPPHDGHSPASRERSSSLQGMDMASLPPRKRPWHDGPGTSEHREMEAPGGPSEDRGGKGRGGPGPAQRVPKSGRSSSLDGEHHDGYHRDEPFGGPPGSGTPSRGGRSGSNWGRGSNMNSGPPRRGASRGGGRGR

[3] = target: T1, CPSF30 (within CPSF complex); experiment: UV cross-linking, RNase, IP
[4] = target: T3, Fip1 (within CPSF complex) (human? (HEK293), UniProt Q6UN15 1-594); experiment: UV cross-linking, RNase I, IP
T3 sequence: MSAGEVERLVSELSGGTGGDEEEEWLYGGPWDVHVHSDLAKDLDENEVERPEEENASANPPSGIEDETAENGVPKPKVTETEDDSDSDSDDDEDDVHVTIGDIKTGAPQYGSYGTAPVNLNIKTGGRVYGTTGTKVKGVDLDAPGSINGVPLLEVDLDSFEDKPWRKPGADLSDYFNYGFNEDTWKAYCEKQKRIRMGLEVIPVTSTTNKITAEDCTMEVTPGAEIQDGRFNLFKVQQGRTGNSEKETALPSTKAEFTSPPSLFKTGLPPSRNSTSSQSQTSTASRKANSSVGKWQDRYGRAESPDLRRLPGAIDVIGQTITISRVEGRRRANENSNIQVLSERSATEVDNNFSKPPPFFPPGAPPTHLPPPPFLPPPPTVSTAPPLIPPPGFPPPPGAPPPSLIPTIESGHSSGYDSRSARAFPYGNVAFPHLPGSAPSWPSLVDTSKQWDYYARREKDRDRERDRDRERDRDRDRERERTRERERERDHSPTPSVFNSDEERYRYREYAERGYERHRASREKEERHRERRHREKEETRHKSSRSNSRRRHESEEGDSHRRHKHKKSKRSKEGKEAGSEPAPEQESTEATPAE

[5] = target: T2, Wdr33 (within CPSF complex); experiment: UV cross-linking, RNase, IP
[6] = target: CPSF complex (CPSF73-3xFlag immunopurified) (human? (HEK293), UniProt Q10570;Q9C0J8;Q9P2I0;Q9UKF6;Q6UN15;O95639;Q92797 …); experiment: EMSA
[7] = target: Flag-CPSF30 full length (UniProt O95639-2 1-244); experiment: UV cross-linking
[8] = target: Flag-CPSF30 (baculovirus) (UniProt O95639-2 1-244); experiment: UV cross-linking
[9] = target: CPSF complex with HA-CPSF30 full length (human? (HEK293), UniProt Q10570;Q9C0J8;Q9P2I0;Q9UKF6;Q6UN15;O95639-2;Q92797 …); experiment: UV cross-linking

Q: Does AUGUACUAGGAGACACAAUAACGGCAAUGUUUUUAUUUGUA (ssRNA) [L3 mutant (AAUAAC)] bind [1]?
A: Result: no binding

Q: Does AUGUACUAGGAGACACAAUAACGGCAAUGUUUUUAUUUGUA (ssRNA) [L3 mutant (AAUAAC)] bind [2]?
A: Result: no binding

Q: Does AUGUACUAGGAGACACAAUAAAGGCAAUGUUUUUAUUUGUA (ssRNA) [L3 wild type] bind [3]?
A: Result: binds

Q: Does AUGUACUAGGAGACACAAUAAAGGCAAUGUUUUUAUUUGUA (ssRNA) [L3 wild type] bind [4]?
A: Result: binds

Q: Does AUGUACUAGGAGACACAAUAAAGGCAAUGUUUUUAUUUGUA (ssRNA) [L3 wild type] bind [5]?
A: Result: binds

Q: Does CUGCAAGAAACAAGUUAA (ssRNA) [SVL mutant (AAGAAA)] bind [6]?
A: Result: no binding

Q: Which results are given for CUGCAAUAAACAAGUUAA (ssRNA) [SVL wild type]?
A: binding result [6]: binds; binding result [7]: binds; binding result [8]: binds; binding result [9]: binds
